In this assay the target is Myc-nectin-1-CP (aa 379–518) (human). Kind of assay: pull-down.

Experimental findings from PMC2185068 are described below.

Usually stoichiometry N stands for a count of units in the complex or per binding partner.

B1: GST-l-afadin-PDZ (aa 1007–1125) (domain or fragment)
chain: PLRKEPEVITVTLKKQNGMGLSIVAAKGAGQDKLGIYVKSVVKGGAADVDGRLAAGDQLLSVDGRSLVGLSQERAAELMTRTSSVVTLEVAKQGAIYHGLATLLNQPSPMMQRISDRRG
The molecule B1 came in with a stoichiometry N of 1.
